According to US20090005294A1 (CENTRO DE INGENIERIA GENETICA Y BIOTECNOLOGIA, published 2009):
Bridges are numbered along the chain shown (N, C = ends). Where no end group is shown, it is not given here.

T1: CKII substrate peptide RRREEETEEE (optimized consensus domain for CKII phosphorylation)
T1 peptide: RRREEETEEE


Biological target: T1, CKII substrate peptide RRREEETEEE …
Assay: cell-based or functional assay

| Binder | inhibition of CKII phosphorylation of the substrate peptide (32P, cpm on filters) [%] |
| --- | --- |
| CAKQRTDPGYC (disulfide 1-11 (inferred)) [cyclic peptide (d) CAKQRTDPGYC] | 80 |
| CHYIAGTVQGC (disulfide 1-11 (inferred)) [cyclic peptide (g) CHYIAGTVQGC] | 80 |
| CRNCTVIQFSC (disulfide 1-11) [cyclic peptide (f) CRNCTVIQFSC] | 80 |
| CPLVSLRDHSC (disulfide 1-11 (inferred)) [cyclic peptide (h) CPLVSLRDHSC] | 80 |
| CQIPQRTATRC (disulfide 1-11 (inferred)) [cyclic peptide (c) CQIPQRTATRC] | 80 |
| CSSCQNSPALC (disulfide 1-11) [cyclic peptide (b) CSSCQNSPALC] | 80 |
| CSVRQGPVQKC (disulfide 1-11 (inferred)) [cyclic peptide (a) CSVRQGPVQKC] | 80 |
| CQSYHELLLQC (disulfide 1-11 (inferred)) [cyclic peptide (k) CQSYHELLLQC] | 80 |
| CKQSYLHHLLC (disulfide 1-11 (inferred)) [cyclic peptide (i) CKQSYLHHLLC] | 80 |
| CFQPLTPLCRC (disulfide 1-11) [cyclic peptide (j) CFQPLTPLCRC] | 80 |
| CWMSPRHLGTC (disulfide 1-11 (inferred)) [cyclic peptide (e) CWMSPRHLGTC] | 80 |
